Experimental data taken from US20210396761A1 (AICURIS, published 2021).
Non-standard residues stand in square brackets, D forms with d. *: point of attachment. Bio = O=C1N[C@H]2[C@H](CS[C@H]2CCCCC(=O)*)N1; Aoa = not defined here

T1: HCMV pUL50, C-terminally fused to the HA epitope (pcDNA-UL50-HA, pHM2589) (human cytomegalovirus (HCMV) strain …, UniProt P16791 1-397)
T1 sequence: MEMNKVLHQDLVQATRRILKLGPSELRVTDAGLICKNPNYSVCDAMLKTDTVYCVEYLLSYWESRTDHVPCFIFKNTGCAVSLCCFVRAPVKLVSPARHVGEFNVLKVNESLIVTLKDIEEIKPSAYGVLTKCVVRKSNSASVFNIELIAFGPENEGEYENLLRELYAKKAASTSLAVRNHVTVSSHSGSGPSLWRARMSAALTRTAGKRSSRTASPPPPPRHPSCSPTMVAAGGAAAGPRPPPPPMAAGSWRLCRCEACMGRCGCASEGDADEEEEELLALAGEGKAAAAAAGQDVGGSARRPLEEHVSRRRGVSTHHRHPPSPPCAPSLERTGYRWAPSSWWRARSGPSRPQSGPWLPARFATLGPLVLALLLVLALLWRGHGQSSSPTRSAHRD

T2: BFLF2 (EBV hook protein, soluble recombinant) (Epstein-Barr virus (EBV), UniProt P0CK47 78-318)
T2 sequence: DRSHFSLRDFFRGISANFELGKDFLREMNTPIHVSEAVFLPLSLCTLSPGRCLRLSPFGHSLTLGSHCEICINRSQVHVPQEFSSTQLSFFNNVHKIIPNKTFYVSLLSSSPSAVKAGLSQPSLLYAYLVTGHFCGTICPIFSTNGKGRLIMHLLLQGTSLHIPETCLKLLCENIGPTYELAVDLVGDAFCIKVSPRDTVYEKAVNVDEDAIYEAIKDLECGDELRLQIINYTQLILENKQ

T3: His-tagged pUL50 (HCMV groove protein, soluble recombinant) (human cytomegalovirus (HCMV)), P16791
T3 chain: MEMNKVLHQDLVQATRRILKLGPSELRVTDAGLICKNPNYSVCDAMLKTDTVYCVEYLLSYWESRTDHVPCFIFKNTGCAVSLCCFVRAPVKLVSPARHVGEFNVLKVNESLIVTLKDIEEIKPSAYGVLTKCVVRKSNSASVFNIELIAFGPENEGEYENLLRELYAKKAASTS

T4: pUL53 (HCMV hook protein, soluble recombinant) (human cytomegalovirus (HCMV), UniProt P16794 50-292)
T4 sequence: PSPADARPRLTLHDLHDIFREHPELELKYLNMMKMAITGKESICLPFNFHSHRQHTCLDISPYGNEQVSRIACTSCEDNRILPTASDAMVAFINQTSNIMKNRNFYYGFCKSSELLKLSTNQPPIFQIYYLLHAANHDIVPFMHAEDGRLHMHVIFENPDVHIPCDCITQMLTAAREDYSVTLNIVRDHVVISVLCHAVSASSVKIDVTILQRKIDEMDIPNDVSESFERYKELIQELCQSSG

B1: VZV Orf24, C-terminally fused to the HA epitope (pcDNA-Orf24-HA, pHM4695) (other)
chain: MSRRTYVRSERRRGCGDNLLQRIRLVVPSALQCCDGDLPIFDPQRPPARCVFQFNGEDNVSEAFPVEYIMRLMANWAQVDCDPYIKIQNTGVSVLFQGFFFRPTNAPVAEVSIDSNNVILSSTLSTGINLSALESIKRGGGIDRRPLQALMWVNCFVRMPYVQLSFRFMGPEDPSRTIKLMARATDAYMYKETGNNLDEYIRWRPSFRSPPENGSPNTSVQMQSDIKPALPDTQTTRVWKLALPVANVTYALFIVIVLVVVLGAVLFWK
B2: EBV BFLF2, C-terminally fused to the Flag epitope (pcDNA-BFLF2-Flag, pHM4698) (other)
chain: MAPVTPDAVNARQQRPADPALRRLMHPHHRNYTASKASAHSVKSVSRCGKSRSELGRMERVGSVARSICSRHTRHGVDRSHFSLRDFFRGISANFELGKDFLREMNTPIHVSEAVFLPLSLCTLSPGRCLRLSPFGHSLTLGSHCEICINRSQVHVPQEFSSTQLSFFNNVHKIIPNKTFYVSLLSSSPSAVKAGLSQPSLLYAYLVTGHFCGTICPIFSTNGKGRLIMHLLLQGTSLHIPETCLKLLCENIGPTYELAVDLVGDAFCIKVSPRDTVYEKAVNVDEDAIYEAIKDLECGDELRLQIINYTQLILENKQDYKDDDDK
notes: also called Flag-tagged BFLF2
B3: His-tagged BFRF1 (EBV groove protein, soluble recombinant) (other)
chain: MASPEERLLDELNNVIVSFLCDSGSLEVERCSGAHVFSRGSSQPLCTVKLRHGQIYHLEFVYKFLAFKLKNCNYPSSPVFVISNNGLATTLRCFLHEPSGLRSGQSGPCLGLSTDVDLPKNSIIMLGQDDFIKFKSPLVFPAELDLLKSMVVCRAYITEHRTTMQFLVFQAANAQKASRVMDMISDMSQQLS
notes: also called His-tagged groove protein
B4: VZV Orf27, C-terminally fused to the Flag epitope (pcDNA-Orf27-Flag, pHM4696) (other)
chain: MHLKPTRFFHANQPPMPHSYEMEDLCFDDMQYRWSPSNTPYRSMSRRYKSVSRSGPSMRVRSRTPCRRQTIRGKLMSKERSVYRHYFNYIARSPPEELATVRGLIVPIIKTTPVTLPFNLGQTVADNCLSLSGMGYHLGLGGYCPTCTASGEPRLCRTDRAALILAYVQQLNNIYEYRVFLASILALSDRANMQAASAEPLLSSVLAQPELFFMYHIMREGGMRDIRVLFYRDGDAGGFMMYVIFPGKSVHLHYRLIDHIQAACRGYKIVAHVWQTTFLLSVCRNPEQQTETVVPSIGTSDVYCKMCDLNFDGELLLEYKRLYALFDDFVPPRDYKDDDDK
B5: pUL53 (50-292) (other)
chain: T4 sequence
B6: His-tagged pUL50 (HCMV groove protein, soluble recombinant) (other)
chain: T3 chain
notes: as for B3
B7: EBV BFRF1, C-terminally fused to the HA epitope (pcDNA-BFRF1-HA, pHM4697) (other)
chain: MASPEERLLDELNNVIVSFLCDSGSLEVERCSGAHVFSRGSSQPLCTVKLRHGQIYHLEFVYKFLAFKLKNCNYPSSPVFVISNNGLATTLRCFLHEPSGLRSGQSGPCLGLSTDVDLPKNSIIMLGQDDFIKFKSPLVFPAELDLLKSMVVCRAYITEHRTTMQFLVFQAANAQKASRVMDMISDMSQQLSRSGQVEDTGARVTGGGGPRPGVTHSGCLGDSHVRGRGGWDLDNFSEAETEDEASYAPWRDKDSWSESEAAPWKKELVRHPIRRHRTRETRRMRGSHSRVEHVPPETRETVVGGAWRYSWRATPYLARVLAVTAVALLLMFLRWT
notes: also called EBC BFRF1-HA; HA-tagged BFRF1
B8: HCMV pUL53, C-terminally fused to the Flag epitope (pcDNA-UL53-Flag, pHM2590) (other)
chain: MSSVSGVRTPRERRSALRSLLRKRRQRELASKVASTVNGATSANNHGEPPSPADARPRLTLHDLHDIFREHPELELKYLNMMKMAITGKESICLPFNFHSHRQHTCLDISPYGNEQVSRIACTSCEDNRILPTASDAMVAFINQTSNIMKNRNFYYGFCKSSELLKLSTNQPPIFQIYYLLHAANHDIVPFMHAEDGRLHMHVIFENPDVHIPCDCITQMLTAAREDYSVTLNIVRDHVVISVLCHAVSASSVKIDVTILQRKIDEMDIPNDVSESFERYKELIQELCQSSGNNLYEEATSSYAIRSPLTASPLHVVSTNGCGPSSSSQSTPPHLHPPSQATQPHHYSHHQSQSQQHHHRPQSPPPPLFLNSIRAPDYKDDDDK
notes: also called pUL53-Flag; Flag-tagged pUL53

Tests used:
[1] = biological target: B8; test: coimmunoprecipitation, transiently transfected 293T cells
[2] = biological target: B4; test: as above
[3] = biological target: B7; test: as above
[4] = biological target: T1, HCMV pUL50, C-terminally fused to the …; test: as above
[5] = biological target: T2, BFLF2 (EBV hook protein, soluble …); test: direct ELISA, BFLF2 coated, His-tagged BFRF1 in serial dilutions, anti-His-HRP
[6] = biological target: T3, His-tagged pUL50 (HCMV groove protein, …); test: competitive ELISA, inhibition of His-tagged pUL50 binding to coated pUL53
[7] = biological target: the molecule itself; test: analytical size exclusion chromatography, self-association
[8] = biological target: T4, pUL53 (HCMV hook protein, soluble …); test: direct ELISA, comparison of EC50 values
[9] = biological target: T4, pUL53 (HCMV hook protein, soluble …); test: direct ELISA, pUL53 coated, His-tagged pUL50 in serial dilutions, anti-His-HRP

B1: no binding [1]; binds [2].

B2: binds [3]; no binding [4].

B3 gave an EC50 [5] of 122 nM.

In the case of Ac-SHFSLRDFFRGISANFELGKDFLREMNTP[Aoa]K(Bio)-NH2 (reading uncertain) [EBV hook peptide (Ac-BFLF2 80-108-Aoa-Lys(Bio)-NH2)], the IC50 [6] is reported as 2600 nM and the fold lower inhibitory activity than the HCMV hook peptide [6] is reported as 22 fold.

B4: no binding [4].

B5: binds [7].

With B6 the “fold stronger than the BFRF1-BFLF2 interaction of EBV” value [8] was roughly 20 fold and the EC50 [9] was 6.2 nM.

B7: no binding [1].

B8: binds [4].

With LTLHDLHDIFREHPELELKYLNMMKMAITK (modifications not checked) [HCMV hook peptide (Ac-pUL53 59-87-Aoa-Lys(Bio)-NH2)] the IC50 [6] was 114 nM.
